Biological target: the molecule itself
Assay: SEC

B1: Arabidopsis thaliana Golgi anti-apoptotic protein 3 (AtGAAP3) (natural protein, UniProt Q9ZQX7-1 1-248, looked up)
chain: MYQWNLPYRKDDVETGVSSRRPLLYPAMHENPELRWGFIRKVYSIIAFQLLATVAVAATVVTVRPIALFFATTGLGLALYIVIIITPLIVLCPLYYYHQKHPVNYLLLGIFTLALAFVVGLTCAFTNGKVILESVILTSVVVLSLTLYTFWAARKGYDFNFLGPFLFGALTVLIFFALIQILFPLGRVSVMIYGCLVSIIFCGYIVYDTDNLIKRHTYDEYIWAAVSLYLDIINLFLYLLTVLRALQR
- binding result: binds

Reference: paper doi:10.1101/859678 (bioRxiv, 2019)
